Assay results reported in US20250299771A1.

Key:
[1] = target: HLA-C*07:02/A*02:01 chimera of Example 2 (heavy chain with human β2m) (human)
[2] = target: HLA-C*07:02-A*02:01 chimera of Example 4 (heavy chain with human β2m) (human)

Tm [1]: 48.3 °C | Tm [2]: 49.8 °C
B1: RYR peptide (…) (peptide)
peptide: RYRPGTVAL
modifications: not checked
